Sequences and labels used below:
B1: t865694 (protein)
chain: MGNTTSIAGRDCLISALGGNSALAVFPNELLWTADVHEYNLNLPVTPAAITYPETAEQIAGVVKCASDYDYKVQARSGGHSFGNYGLGGADGAVVVDMKHFTQFSMDDETYEAVIGPGTTLNDVDAELYNNGKRAMAHGVCPTIKTGGHFTIGGLGPTARQWGLALDHVEEVEVVLANSSIVRASNTQNQDVFFAVKGAAANFGIVTEFKVRTEPAPGLAVQYSYTFNLGSTAEKAQFVKDWQSFISAKNLTRQFYNNMVIFDGDIILEGLFFGSKEQYDALGLEDHFAPKNPGNILVLTDWLGMVGHALEDTILKLVGNTPTWFYAKSLGFRQDTLIPSAGIDEFFEYIANHTAGTPAWFVTLSLEGGAINDVAEDATAYAHRDVLFWVQLFMVNPVGPISDTTYEFTDGLYDVLARAVPESVGHAYLGCPDPRMEDAQQKYWRTNLPRLQELKEELDPKNTFHHPQGVMPA
B2: t865741 (protein)
chain: B1 chain with E57A, A126I, Y256M
B3: t865745 (protein)
chain: B1 chain with E57A, V63I, A126I
modifications: expressed in S. cerevisiae strain
B4: t865748 (protein)
chain: B1 chain with Y39F, E57A, A126I
modifications: expressed in S. cerevisiae strain
B5: t865726 (protein)
chain: B1 chain with T33D, E57A, A126I, N257S
B6: t878465 (protein)
chain: B1 chain with E57A, A126I, N202S, P472A
modifications: expressed in S. cerevisiae strain
B7: t865723 (protein)
chain: B1 chain with E57A, A126I, Y129W
B8: t865720 (protein)
chain: B1 chain with E57A, N122G, A126K
B9: t865751 (protein)
chain: B1 chain with E57A, A126I, S423A
modifications: expressed in S. cerevisiae strain
B10: t865736 (protein)
chain: B1 chain with E57A, A126I, N295S

Where a chain is given by its changes, count along the chain named.

In the first assay the test system is CBCVA, THCVA, and CBDVA production. The experiment in a line: In vivo TS activity assay, Example 2 protein engineering of A. niger CBCAS, cultures fed divaric acid. The note with it: S. cerevisiae strains expressing A. niger CBCAS mutants, secondary screen, fed divaric acid. Format: cell-based, S. cerevisiae. Summed up: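 S. cerevisiae expressing A. niger CBCAS point mutants (N-terminal MFalpha2, C-terminal HDEL signal peptides) grown 2 days at 30 °C in YEP+4% dextrose, then 4 days at 20 °C in YEP+4% galactose with 1 mM divaric acid plus daily 2% galactose and 1 mM divaric acid spikes, then 2 days with 100 mM sodium citrate pH 5.5. Methanol extracts analysed by LC-MS; quadruplicate.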
For the molecule B1, the “Mean CBCVA” value was found to be 3069.69 µg/L, the “Mean CBDVA” value came out at 0.00 µg/L and the “Mean THCVA” value is 1647.98 µg/L.
For B2, the “Mean CBCVA” value was 4388.54 µg/L, the “Mean CBDVA” value is 0.00 µg/L and the “Mean THCVA” value was 2033.77 µg/L.
For B3, the “Mean CBCVA” value was 7068.26 µg/L, the “Mean CBDVA” value amounted to 0.00 µg/L and the “Mean THCVA” value was 2991.05 µg/L.
The like results for B4 were, in that order, 3759.89 µg/L, 0.00 µg/L and 1591.63 µg/L.
Take B5: the “Mean CBCVA” value came to 3644.48 µg/L, the “Mean CBDVA” value amounted to 0.00 µg/L and the “Mean THCVA” value was determined as 1740.51 µg/L.
Turning to B6, the “Mean CBCVA” value was 4314.23 µg/L, the “Mean CBDVA” value is 0.00 µg/L and the “Mean THCVA” value was found to be 2144.09 µg/L.
The matching figures for B7: 4223.36 µg/L, 0.00 µg/L and 2125.21 µg/L.
In the case of B8, the “Mean CBCVA” value amounted to 4276.65 µg/L, the “Mean CBDVA” value was 0.00 µg/L and the “Mean THCVA” value stood at 2090.51 µg/L.
As to B9, the “Mean CBCVA” value worked out at 3998.68 µg/L, the “Mean CBDVA” value came to 0.00 µg/L and the “Mean THCVA” value is 1894.39 µg/L.
As to B10, the “Mean CBCVA” value was 3847.79 µg/L, the “Mean CBDVA” value was 0.00 µg/L and the “Mean THCVA” value is 1963.40 µg/L.

The same assay, now with this note: secondary screen.
As to B2, the “average CBCVA titer compared with the A. niger positive control” value is “higher”.
Still for that read-out and setting: the value for B3 was “higher”; that for B4 was “higher”; that for B5 was “higher”.
Still for that read-out and setting: the value for B6 was “higher”; that for B7 was “higher”.
On the same count and under the same terms, the entry for B8 is “higher”; for B9 it is “higher”; for B10 it is “higher”.

Staying with this assay, now noted: share of terminal cannabinoid product profile, fed divaric acid.
Take B1: the “% CBCVA” value was determined as 65.07%, the “% CBDVA” value came to 0.00% and the “% THCVA” value stood at 34.93%.
As for B2, the “% CBCVA” value is listed as 68.33%, the “% CBDVA” value stood at 0.00% and the “% THCVA” value turned out to be 31.67%.
Consider B3, for which the “% CBCVA” value is 70.27%, the “% CBDVA” value is on record as 0.00% and the “% THCVA” value is reported as 29.73%.
On to B4, for which the “% CBCVA” value came out at 70.26%, the “% CBDVA” value is reported as 0.00% and the “% THCVA” value is on record as 29.74%.
As for B5, the “% CBCVA” value came out at 67.68%, the “% CBDVA” value was determined as 0.00% and the “% THCVA” value is on record as 32.32%.
For the molecule B6, the “% CBCVA” value came out at 66.80%, the “% CBDVA” value was found to be 0.00% and the “% THCVA” value is 33.20%.
As for B7, the “% CBCVA” value worked out at 66.52%, the “% CBDVA” value is 0.00% and the “% THCVA” value was found to be 33.48%.
For the molecule B8, the “% CBCVA” value is 67.17%, the “% CBDVA” value came out at 0.00% and the “% THCVA” value was 32.83%.
Take B9: the “% CBCVA” value is given as 67.85%, the “% CBDVA” value came out at 0.00% and the “% THCVA” value was 32.15%.
The matching figures for B10: 66.21%, 0.00% and 33.79%.

The test system of another assay is CBCA, THCA, and CBDA production. The experiment in a line: In vivo TS activity assay, Example 2 protein engineering of A. niger CBCAS, cultures fed olivetolic acid. Format: cell-based, S. cerevisiae. The note with it: secondary screen. Summed up: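 S. cerevisiae expressing A. niger CBCAS mutants (MFalpha2/HDEL-tagged) grown 2 days at 30 °C in YEP+4% dextrose, then 4 days at 20 °C in YEP+4% galactose with 1 mM olivetolic acid, spiked every 24 h with 2% galactose and 1 mM olivetolic acid. 100 mM citrate pH 5.5 added, methanol-extracted; CBCA, THCA, CBDA quantified by LC-MS.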
In the case of B1, the “average CBCA titer compared with the A. niger positive control” value was “higher”.
In the case of B5, the “average CBCA titer compared with the A. niger positive control” value is recorded as “higher”.
On to B6, for which the “average CBCA titer compared with the A. niger positive control” value is reported as “higher”.

The assay is the same for the next values; noted with them: secondary screen, olivetolic acid (Table 8).
As for B1, the “Mean CBCA” value came to 43506.37 µg/L, the “Mean CBDA” value stood at 9126.46 µg/L and the “Mean THCA” value stood at 2579.57 µg/L.
The matching figures for B2: 15982.40 µg/L, 4419.64 µg/L and 957.33 µg/L.
In the case of B3, the “Mean CBCA” value turned out to be 27923.31 µg/L, the “Mean CBDA” value amounted to 7360.14 µg/L and the “Mean THCA” value turned out to be 1963.25 µg/L.
On to B4, for which the “Mean CBCA” value is 21260.42 µg/L, the “Mean CBDA” value is 6161.32 µg/L and the “Mean THCA” value amounted to 1575.92 µg/L.
The matching figures for B5: 41981.73 µg/L, 9985.90 µg/L and 2186.01 µg/L.
In the case of B6, the “Mean CBCA” value was found to be 41094.07 µg/L, the “Mean CBDA” value was found to be 9826.17 µg/L and the “Mean THCA” value worked out at 2184.77 µg/L.
For the molecule B7, the “Mean CBCA” value was found to be 22893.08 µg/L, the “Mean CBDA” value stood at 7334.92 µg/L and the “Mean THCA” value stood at 1788.74 µg/L.
Regarding B8, the “Mean CBCA” value was found to be 27895.13 µg/L, the “Mean CBDA” value worked out at 7663.58 µg/L and the “Mean THCA” value is 1543.57 µg/L.
On to B9, for which the “Mean CBCA” value stood at 31396.25 µg/L, the “Mean CBDA” value is 8775.99 µg/L and the “Mean THCA” value was determined as 1709.83 µg/L.
In the case of B10, the “Mean CBCA” value is 24918.92 µg/L, the “Mean CBDA” value was found to be 6931.79 µg/L and the “Mean THCA” value came out at 1690.72 µg/L.

Staying with this assay, now noted: share of terminal cannabinoid product profile.
In the case of B1, the “% CBCA” value is 78.80%, the “% CBDA” value is 16.53% and the “% THCA” value is 4.67%.
As for B2, the “% CBCA” value is reported as 74.83%, the “% CBDA” value came out at 20.69% and the “% THCA” value is recorded as 4.48%.
For B3, the “% CBCA” value was 74.97%, the “% CBDA” value worked out at 19.76% and the “% THCA” value stood at 5.27%.
In the case of B4, the “% CBCA” value turned out to be 73.32%, the “% CBDA” value was 21.25% and the “% THCA” value worked out at 5.43%.
On to B5, for which the “% CBCA” value is on record as 77.52%, the “% CBDA” value was found to be 18.44% and the “% THCA” value was found to be 4.04%.
With B6, the “% CBCA” value amounted to 77.38%, the “% CBDA” value is 18.50% and the “% THCA” value was 4.11%.
Consider B7, for which the “% CBCA” value was found to be 71.50%, the “% CBDA” value turned out to be 22.91% and the “% THCA” value was 5.59%.
For B8, the “% CBCA” value amounted to 75.18%, the “% CBDA” value is on record as 20.66% and the “% THCA” value is given as 4.16%.
B9: the “% CBCA” value turned out to be 74.96%, the “% CBDA” value is recorded as 20.95% and the “% THCA” value stood at 4.08%.
The matching figures for B10: 74.29%, 20.67% and 5.04%.

The record behind these values is patent US20230137139A1, “BIOSYNTHESIS OF CANNABINOIDS AND C[…]” (priority 2020, published 2023).
